Test results published in patent US20050164166A1 (US Dept. of Health and Human Services, published 2005).

B1: Fab X5 (Fab, V domains shown)
VH: VQLLEQSGAEVKKPGSSVQVSCKASGGTFSMYGFNWVRQAPGHGLEWMGGIIPIFGTSNYAQKFRGRVTFTADQATSTAYMELTNLRSDDTAVYYCARDFGPDWEDGDSYDGSGRGFFDFWGQGTLVTVSS
VL: ELVLTQSPGTLSLSAGERATLSCRASQSVSSGSLAWYQQKPGQAPRLLIYGASTRATGIPDRFSGSGSGTDFTLTIGRLEPEDLAVYYCQQYGTSPYTFGQGTKLEIKR
B2: soluble scFv m6 (scFv, not shown: small tags and cut ends)
scFv: VLTQSPGTLSLSAGERATLSCRASQSVSSGSLAWYQQKPGQAPRLLIYGASTRATGIPDRFSGSGSGTDFTLTIGRLEPEDLAVYYCQQYGTSPYTFGQGTKLEIKRTGGGGSSGGASGGGGSVRLLEQSGAEVKKPGSSVQVSCKASGGTFSMYGVNWVRQAPGHGLEWMGGIIPIFGTSNYAQKFRGRVTFTADQATSTAYMELTNLRSDDTAVYYCARDFGPDWEDGDSYDGSGRGFFDFWGQGTLVTVSS

Legend:
Assay in all cases: cell-based or functional assay
[1] = biological target: Env UG037.8 (clade A) (HIV-1)
[2] = biological target: Env RW020.5 (clade A) (HIV-1)
[3] = biological target: Env US715.6 (clade B) (HIV-1)
[4] = biological target: Env HT593.1 (clade B) (HIV-1)
[5] = biological target: Env US005.11 (clade B) (HIV-1)
[6] = biological target: Env 89.6 (clade B) (HIV-1, UniProt Q73372 32-853)
[7] = biological target: Env NL4-3 (clade B) (HIV-1)
[8] = biological target: Env BR025.9 (clade C) (HIV-1)
[9] = biological target: Env TH022.4 (clade EA) (HIV-1)
[10] = biological target: Env BR019.4 (clade F/B) (HIV-1)
[11] = biological target: Env UG975.10 (clade G) (HIV-1)

| Binder | % of fusion inhibition (cell-cell fusion assay, syncytia count, antibody at 50 ug/ml) [1] [%] | % of fusion inhibition (cell-cell fusion assay, syncytia count, antibody at 50 ug/ml) [2] [%] | % of fusion inhibition (cell-cell fusion assay, syncytia count, antibody at 50 ug/ml) [3] [%] | % of fusion inhibition (cell-cell fusion assay, syncytia count, antibody at 50 ug/ml) [4] [%] | % of fusion inhibition (cell-cell fusion assay, syncytia count, antibody at 50 ug/ml) [5] [%] | % of fusion inhibition (cell-cell fusion assay, syncytia count, antibody at 50 ug/ml) [6] [%] | % of fusion inhibition (cell-cell fusion assay, syncytia count, antibody at 50 ug/ml) [7] [%] | % of fusion inhibition (cell-cell fusion assay, syncytia count, antibody at 50 ug/ml) [8] [%] | % of fusion inhibition (cell-cell fusion assay, syncytia count, antibody at 50 ug/ml) [9] [%] | % of fusion inhibition (cell-cell fusion assay, syncytia count, antibody at 50 ug/ml) [10] [%] | % of fusion inhibition (cell-cell fusion assay, syncytia count, antibody at 50 ug/ml) [11] [%] |
| --- | --- | --- | --- | --- | --- | --- | --- | --- | --- | --- | --- |
| B1 | 34 | 45 | 56 | 27 | 72 | 93 | 83 | 71 | 43 | 37 | 19 |
| B2 | 66 | 56 | 27 | 50 | 83 | 98 | 100 | 57 | 72 | 37 | 48 |
